Assay results: publication doi:10.1101/2020.10.06.328112
Like-named read-outs stand apart in the source and are kept apart here.

Key:
[1] = molecular target: Recombinant human cyclophilin A (human) (UniProt P62937); assay: native MS
[2] = molecular target: Recombinant human cyclophilin A (human) (UniProt P62937); assay: native MS; remark: listed apart in the source

Question: For “Recombinant human cyclophilin A (from UniProt P62937 1-165) (enzyme)”, which stoichiometry N [1] is on record?
Answer: 2

Question: And the stoichiometry N [2]?
Answer: 2
